According to patent US20150353614:

Columns and labels:
Assay in all cases: cell_activity
[1] = target: IA (Idi-AraC DBD chimera) (Escherichia coli) (UniProt P0A9E0); details: no mevalonate
[2] = target: IA44 R267H (Escherichia coli) (UniProt P0A9E0); details: twice the Tmax of IA; E. coli HC175
[3] = target: IA32 L39M,S127C (Escherichia coli) (UniProt P0A9E0); details: half the Tmax of IA; E. coli HC175

Row | Sequence | activity ([1]; 0.36 with 10 mM mevalonate, E. coli HC175) [relative RFP] | activity (Tmax relative to IA) [2] | activity (Tmax relative to IA) [3] | activity ([1]; 0.56 with 10 mM mevalonate) [relative RFP]
1 | TAGCATTTTTATCCATAAGATTAGCGGATCCTACCTGA (double strand) [I1I2 in PBAD] | 1 | 2 | 0.5 | –
2 | TAGCGGATCCTACCTGAAGATTAGCATTTTTATCCATA (double strand) [I2I1 in PBAD] | – | – | – | 1.12
